Values of other authors as cited in patent US20240156960A1 (priority 2020, published 2024).

What was measured:
SARS-CoV2 S; RBD = SARS-CoV2 S; RBD (Severe acute respiratory syndrome coronavirus 2, UniProt P0DTC2); conditions: epitope S

Molecule	Binds to (SARS-CoV2 S; RBD)	Binds to (SARS-CoV2)
C120 (antibody, listed as Homo sapiens, V domains shown) VH: EVQLVESGGGLIQPGGSLRLSCAASGFTVSSNYMTWVRQAPGKGLEWVSLIYPGGSTYYADSVKGRFTISRDNSKNTLYLQMNSLRAEDTAVYYCAREGMGMAAAGTWGQGTLVTVSS VL: AIRMTQSPSSLSASVGDTVTITCQASQDISKYLNWYQQKPGKAPKLLIYDASNLETGVPSRFSGSGSGTDFTFTISSLQPEDIATYYCQQYDNLPQTFGGGTKVEIK	SARS-CoV2	–
C124 (antibody, listed as Homo sapiens, V domains shown) VH: EVQLVESGGGLVQPGGSLRLSCAASGFTFSGYSMNWVRQAPGKGPEWVSYISRSSSTIYYADSVKGRFTISRDNAKNSLYLQMNSLRDEDTAVYYCAREGARVGATYDTYYFDYWGQGTLVTVSS VL: EIVLTQSPATLSLSPGERATLSCRASQSFSSYLAWYQQKPGQAPRLLIYDASNRATGIPARFSGSGSGTDFTLTISSLEPEDFAVYYCQQRNNWPPEWTFGQGTKVEIK	SARS-CoV2	–
2M-8E7 (antibody, listed as Homo sapiens, V domains shown) VH: EVQLVESGAEVKKPGSSVKVSCKASGGTFSSYAISWVRQAPGQGLEWMGGIIPIFGTANYAQKFQGRVTVTADESTSTAYMELSSLRSEDTAVYYCARTYSFDSSGYYYDYWGQGTMVTVSS VL: EIVLTQSPATLSLSPGERATLSCRASQSVSSYLAWYQQKPGQAPRLLIYDASNRATGIPARFSGSGSGTDFTLTISSLEPEDFAVYYCQQRSNWPPKITFGQGTRLEIK	–	SARS-CoV2
2M-7E9 (antibody, listed as Homo sapiens, V domains shown) VH: EVQLVESGAEVKKPGSSVKVSCKASGGTFSSFAISWVRQAPGQGLEWMGGIIPIFDTTNYAQKFQGRVTITADESTRTAYMELSSLRSEDTAVYYCARIPGWDRGTDRNWNDDWGQGTTVTVSS VL: DIVMTQSPATLSLSPGERATLSCRASQSVSNFLAWYQQKPGQAPRLLIYDASNRATGIPARFSGSGSGTDFTLTISSLEPEDFAVYYCQQRSNWPPAFTFGPGTKVEIK	–	SARS-CoV2
C108 (antibody, listed as Homo sapiens, V domains shown) VH: QVQLQESGPGLVKPSGTLSLTCAVSGGSISSTNWWSWVRQPPGKGLEWIGEIYHTGSTNYNPSLKSRVTISVDKSKNQFSLKLSSVTAADTAVYYCVRDGGRPGDAFDIWGQGTMVTVSS VL: QSALTQPASVSGSPGQSITISCTGTSSDVGGYNYVSWYQQHPGKAPKLMIYDVSNRPSGVSNRFSGSKSGNTASLTISGLQAEDEADYYCNSYTSSSTRVFGTGTKVTVL	SARS-CoV2	–
2M-9F10 (antibody, listed as Homo sapiens, V domains shown) VH: EVQLLQSGGDLIQPGRSLRLSCAASGFSFEDYAMHWVRQAPGQGLEWVSGISYNGGSIDYVDSVKGRFTISRDNAKNALYLEMNSLRPEDTAFYYCAKDSVRREYTHARVPFDNWGLGTLVTVSS VL: AIRMTQSPSSLSASVGDRVTISCRATQNINYFLNWYQQKPGRAPKLLIYAASGLQSGVPSRFSGSGTGRVFTLTINSLQPDDFATYYCQQSFVSPRTFGQGTKVDIK	–	SARS-CoV2
2M-9H1 (antibody, listed as Homo sapiens, V domains shown) VH: EVQLLESGGGVVQPGRSLRLSCVASGFNFNNYGMHWVRQAPGKGLEWLAALSYEGSKEHYADSLKGRFTVSRDYSRATLHLHMNSLEPEDTAVYFCAKSSKIFYLGESREVDYWGRGTLVTVSS VL: DIVMTQSPSSLSAFVGDRVTITCRASRDIGGDLSWFQQKPGKAPERLIYAASSLESGVPSRFSGSGSATEFALTITSLQPEDFATYYCLQHKSYPLTFGGGTKVDIK	–	SARS-CoV2
C105 (antibody, listed as Homo sapiens, V domains shown) VH: QVQLVESGGGLIQPGGSLRLSCAASGFTVSSNYMSWVRQAPGKGLEWVSVIYSGGSTYYADSVKGRFTISRDNSKNTLYLQMNSLRAEDTAVYYCARGEGWELPYDYWGQGTLVTVSS VL: QSALTQPPSASGSPGQSVTISCTGTSSDVGGYKYVSWYQQHPGKAPKLMIYEVSKRPSGVPDRFSGSKSGNTASLTVSGLQAEDEADYYCSSYEGSNNFVVFGGGTKLTVL	SARS-CoV2	–
2M-8H10 (antibody, listed as Homo sapiens, V domains shown) VH: QVQLVESGGGVVLPGRSLRLSCAASGFTFSTFAMHWVRQAPGKGLEWVAVISDEGSNKYYADSVKGRFTISRDNSRNTLYLQMNSLRAEDTAVYYCARAFYDSNWSVGSYFDSWGQGTPVTVSS VL: DIQMTQSPDSLAVSLGERATIKCKSSQSVLHSSNNKNYLAWYQQKAGQPPSLLLYWASTRESGVPDRFSGSGSGTDFTLTISSLQAEDVAVYYCQQYYNNQWTFGQGTKVDIK	–	SARS-CoV2
2M-4G4 (antibody, listed as Homo sapiens, V domains shown) VH: EVQLVESGAEVKKPGASVKVSCKASGYTFTSYYIHWVRQAPGQGLEWMGVINPSGGSTTYAQKFQGRVTVTRDTSTSTVYMELSSLRSEDTAVYYCARERGDSSGYYEIITTANRRFGMDVWGQGTTVTVSS VL: QSVLTQPASVSGSPGQSITISCTGTSSDVGMYNLVSWYQQHPGQAPKLMIYEGSKRPSGVSNRFSGSKSGNTASLTISGLQAEDEAYYYCCSYAVSSTWVFGGGTKLTVL	–	SARS-CoV2
C103 (antibody, listed as Homo sapiens, V domains shown) VH: QVQLQQWGAGLLKPSETLSLTCAVSGGSLSGFYWTWIRQPPGKGLEWIGETNHFGSTGYKPSLKSRVTISVDMSRNQFSLKVTSVTAADTAVYYCARKPLLYSDFSPGAFDIWGQGTMVTVSS VL: EIVLTQSPGTLSLSPGERATLSCRASQTVTANYLAWYQQKPGQAPRLLIYGASKRATGIPDRFSGSGSGTDFTLSISRLEPEDFAVYYCQQYTTTPRTFGGGTKVEIK	SARS-CoV2	–
C122 (antibody, listed as Homo sapiens, V domains shown) VH: EVQLVESGGGLIQPGGSLRLSCAASGLTVSSNYMSWVRQAPGKGLEWVSVLYSGGSSFYADSVKGRFTISRDNSKNTLYLQMNSLRAEDTAVYYCARESGDTTMAFDYWGQGTLVTVSS VL: DIQLTQSPSFLSASVGDRVTITCRASQGISSYLAWYQQKPGKAPKLLIYAASTLQSGVPSRFSGSGSGTEFTLTISSLQPEDFATYYCQQLNSDSYTFGQGTKLEIK	SARS-CoV2	–
C123 (antibody, listed as Homo sapiens, V domains shown) VH: EVQLVESGGGLIQPGGSLRLSCAASGVTVSRNYMSWVRQAPGKGLEWVSVIYSGGSTYYADSVKGRFTISRDNSKNTLYLQMNSLRAEDTAVYYCARDLSAAFDIWGQGTMVTVSS VL: DIQLTQSPSFLSASVGDRVTITCRASQGISSYLAWYQQKPGKAPKLLIYAASTLQSGVPSRFSGSGSGTEFTLTISSLQPEDFATYYCQQLNSYPPAFGQGTRLEIK	SARS-CoV2	–
C017 (antibody, listed as Homo sapiens, V domains shown) VH: EVQLVESGGGLVQPGRSLRLSCAASGFTFDDYAMHWVRQAPGKGLEWVSGISWNSGTIGYADSVKGRFTISRDNAKNSLYLQMNSLRAEDTAFYYCAKAGVRGIAAAGPDLNFDHWGQGTLVTVSS VL: EIVLTQSPATLSLSPGERATLSCRASQSVSSYLAWYQQKPGQAPRLLIYDASNRATGIPARFSGSGSGTDFTLTISSLEPEDFAVYYCQQRITFGQGTRLEIK	SARS-CoV2	–
C101 (antibody, listed as Homo sapiens, V domains shown) VH: QVQLVESGGGLIQPGGSLRLSCAASGFIVSSNYMSWVRQAPGKGLEWVSVIYSGGSTFYTDSVKGRFTISRDNSKNTLYLQMNSLRAEDTAVYYCVRDYGDFYFDYWGQGTLVTVSS VL: EIVLTQSPGTLSLSPGERATLSCRASQSVSSSYLAWYQQKPGQAPRLLIYGASSRATGIPDRFSGGGSETDFTLTISRLEPEDCAVYYCQQYGSSPRTFGQGTKVEIK	SARS-CoV2	–
C104 (antibody, listed as Homo sapiens, V domains shown) VH: QVQLQQWGAGLLKPSETLSLSCAVYGGSLSGYYWSWIRQPPGKGLEWIGEINHFGSTGYNPSLKSRVTISVDTSKSQFSVKLSSVTAADTAVYYCARKPLLYSNLSPGAFDIWGQGTMVTVSS VL: EIVLTQSPGTVSLSPGERATLSCWASQSVSASYLAWYQQKPGQAPRLLIYGASSRATGIPDRFSGSGSGTDFTLTISRLEPEDFAVYYCQQYGTTPRTFGGGTKVEIK	SARS-CoV2	–
C117 (antibody, listed as Homo sapiens, V domains shown) VH: QVQLVESGGGVVQPGRSLRLSCAASGFTFSTYAMHWVRQAPGEGLEWVAVISYDGSNTYYADSVKGRFTISRDNSKNTLYLQMNSLRAEDTAVYYCARDPIWFGELLSPPFVHFDYWGQGTLVTVSS VL: QSVLTQPPSVSAAPGQKVTISCSGSSSNIGNNLVSWYQQLPGTAPKLLIYENNKRPSGIPDRFSGSKSGTSATLGITGLQTGDEADYYCGAWDSSLSAGGVYVFGTGTKVTVL	SARS-CoV2	–
C115 (antibody, listed as Homo sapiens, V domains shown) VH: QVQLVESGGGLIKPGRSLRLSCTASGFTFGDYAMTWFRQAPGKGLEWVGFIRSKAYGGTTGYAASVKYRFTISRDDSKSIAYLQMDSLKTEDTAVYYCTRWDGWSQHDYWGQGTLVTVSS VL: DIVMTQSPLSLSVTPGEPASISCRSSQSLLHSNGNNYFDWYLQKPGQSPQLLIYLGSNRASGVPDRFSGSGSGTDFTLKISRVEAEDVGVYYCMQVLQIPYTFGQGTKLEIK	SARS-CoV2	–
C110 (antibody, listed as Homo sapiens, V domains shown) VH: QVQLQQSGAEVKKPGESLKISCKGSGYSFTSYWIGWVRQMPGKGLEWMGIIYPGDSDTRYSPSFQGQVTISADKSISTAYMQWSSLKASDTAMYYCARSFRDDPRIAVAGPADAFDIWGQGTMVTVSS VL: DIQMTQSPSTLSASVGDRVTITCRASQSISYWLAWYQQKPGKAPKLLIYQASSLESGVPSRFSGSESGTEFTLTISSLQPDDFATYYCQQYNSYPYTFGQGTKLEIK	SARS-CoV2	–
